Measurements reported in publication PMC9482650, “Quantitative fragmentomics allow affinity mapping of interactomes” (Nature Communications, 2022).

T1: MPDZ_11, O75970
T1 sequence (O75970 1720-1817, limits assumed, looked up): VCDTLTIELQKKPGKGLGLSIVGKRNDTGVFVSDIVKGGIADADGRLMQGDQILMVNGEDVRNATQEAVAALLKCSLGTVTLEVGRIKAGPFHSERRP

T2: MPDZ_3, O75970
T2 sequence (O75970 372-473, limits assumed, looked up): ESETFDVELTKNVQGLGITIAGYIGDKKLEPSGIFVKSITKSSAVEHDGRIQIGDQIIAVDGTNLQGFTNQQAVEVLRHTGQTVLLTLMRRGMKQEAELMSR

T3: NHERF1_1, O14745
T3 sequence (O14745 9-104, limits assumed, looked up): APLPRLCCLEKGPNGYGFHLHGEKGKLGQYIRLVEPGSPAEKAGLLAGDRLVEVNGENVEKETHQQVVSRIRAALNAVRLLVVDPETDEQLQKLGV

T4: NHERF3_2, Q5T2W1
T4 sequence (Q5T2W1 129-225, limits assumed, looked up): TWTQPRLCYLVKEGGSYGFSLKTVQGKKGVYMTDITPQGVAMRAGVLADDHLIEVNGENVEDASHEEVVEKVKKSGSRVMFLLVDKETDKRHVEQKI

T5: PDLIM3, Q53GG5
T5 sequence (Q53GG5 1-94, limits assumed, looked up): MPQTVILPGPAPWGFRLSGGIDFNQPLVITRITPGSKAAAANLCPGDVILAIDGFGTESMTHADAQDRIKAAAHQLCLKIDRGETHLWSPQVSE

T6: PDZD2_4, O15018
T6 sequence (O15018 723-823, limits assumed, looked up): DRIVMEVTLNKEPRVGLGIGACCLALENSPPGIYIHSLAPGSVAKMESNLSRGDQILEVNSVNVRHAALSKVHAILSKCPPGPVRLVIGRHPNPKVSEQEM

T7: PREX2_2, Q70Z35
T7 sequence (Q70Z35 672-764, limits assumed, looked up): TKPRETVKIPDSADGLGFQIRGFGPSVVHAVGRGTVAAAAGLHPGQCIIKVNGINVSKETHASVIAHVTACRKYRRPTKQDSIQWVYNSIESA

T8: SHROOM3, Q8TF72
T8 sequence (Q8TF72 20-120, limits assumed, looked up): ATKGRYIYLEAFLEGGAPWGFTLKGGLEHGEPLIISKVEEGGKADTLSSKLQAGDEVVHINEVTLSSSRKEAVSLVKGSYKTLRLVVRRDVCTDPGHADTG

T9: SYNPO2L, Q9H987
T9 sequence (Q9H987 1-98, limits assumed, looked up): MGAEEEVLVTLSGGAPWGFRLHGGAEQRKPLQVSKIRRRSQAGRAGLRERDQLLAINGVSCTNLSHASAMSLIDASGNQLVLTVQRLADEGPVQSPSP

T10: PARD6B, Q9BYG5
T10 sequence (Q9BYG5 152-260, limits assumed, looked up): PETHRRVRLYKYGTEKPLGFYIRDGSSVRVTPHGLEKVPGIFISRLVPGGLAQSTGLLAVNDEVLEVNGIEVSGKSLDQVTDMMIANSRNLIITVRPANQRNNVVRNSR

T11: SNTB2, Q13425
T11 sequence (Q13425 110-208, limits assumed, looked up): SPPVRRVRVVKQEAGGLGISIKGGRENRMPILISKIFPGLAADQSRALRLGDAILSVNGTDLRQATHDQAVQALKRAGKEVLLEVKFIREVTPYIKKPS


Columns and labels:
Experiment in all cases: holdup assay
Parameters in all cases: key: below the threshold = too weak to quantify, mostly under pKd 3.1 to 4
DLG2_1, Q15700 = target: DLG2_1, Q15700
MAGI3_3, Q5TCQ9 = target: MAGI3_3, Q5TCQ9
Chain of MAGI3_3, Q5TCQ9 (Q5TCQ9 572-655): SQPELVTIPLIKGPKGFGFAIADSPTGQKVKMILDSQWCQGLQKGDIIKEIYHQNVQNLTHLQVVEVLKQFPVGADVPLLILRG

MAGI3_4, Q5TCQ9 = target: MAGI3_4, Q5TCQ9
Chain of MAGI3_4, Q5TCQ9 (Q5TCQ9 716-815): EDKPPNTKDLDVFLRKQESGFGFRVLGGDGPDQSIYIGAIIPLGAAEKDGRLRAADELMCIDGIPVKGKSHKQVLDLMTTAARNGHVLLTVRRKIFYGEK

MAGI3_6, Q5TCQ9 = target: MAGI3_6, Q5TCQ9
Chain of MAGI3_6, Q5TCQ9 (Q5TCQ9 1014-1103): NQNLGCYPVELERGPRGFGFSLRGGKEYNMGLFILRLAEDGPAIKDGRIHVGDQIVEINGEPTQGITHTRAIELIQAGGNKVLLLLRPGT

MPDZ_11, O75970 = target: T1, MPDZ_11, O75970
MPDZ_3, O75970 = target: T2, MPDZ_3, O75970
NHERF1_1, O14745 = target: T3, NHERF1_1, O14745
NHERF2_1, Q15599 = target: NHERF2_1, Q15599
Chain of NHERF2_1, Q15599 (Q15599 9-91): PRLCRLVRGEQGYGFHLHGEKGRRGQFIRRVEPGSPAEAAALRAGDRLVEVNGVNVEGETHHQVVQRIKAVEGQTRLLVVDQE

NHERF3_2, Q5T2W1 = target: T4, NHERF3_2, Q5T2W1
NHERF4_3, Q86UT5 = target: NHERF4_3, Q86UT5
Chain of NHERF4_3, Q86UT5 (Q86UT5 325-412): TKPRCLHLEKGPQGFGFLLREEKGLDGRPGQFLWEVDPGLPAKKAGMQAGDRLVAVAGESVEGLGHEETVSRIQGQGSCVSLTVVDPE

PDLIM3, Q53GG5 = target: T5, PDLIM3, Q53GG5
PDZD2_4, O15018 = target: T6, PDZD2_4, O15018
PREX1_1, Q8TCU6 = target: PREX1_1, Q8TCU6
Chain of PREX1_1, Q8TCU6 (Q8TCU6 608-718): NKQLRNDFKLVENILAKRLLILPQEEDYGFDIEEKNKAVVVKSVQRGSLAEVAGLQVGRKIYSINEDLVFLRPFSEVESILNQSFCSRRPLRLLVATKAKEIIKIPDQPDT

PREX2_2, Q70Z35 = target: T7, PREX2_2, Q70Z35
SHROOM3, Q8TF72 = target: T8, SHROOM3, Q8TF72
SYNPO2L, Q9H987 = target: T9, SYNPO2L, Q9H987
DVL2, O14641 = conditions: plain residues with an end cap or a label only (N-terminal biotin on a linker: (peg)3)
Chain of DVL2, O14641 (O14641 260-359): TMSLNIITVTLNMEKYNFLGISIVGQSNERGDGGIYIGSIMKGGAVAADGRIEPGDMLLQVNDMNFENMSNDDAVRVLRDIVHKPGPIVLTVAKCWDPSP

LMO7, Q8WWI1 = conditions: plain residues with an end cap or a label only (N-terminal biotin on a linker: (peg)3)
Chain of LMO7, Q8WWI1 (Q8WWI1 1037-1138): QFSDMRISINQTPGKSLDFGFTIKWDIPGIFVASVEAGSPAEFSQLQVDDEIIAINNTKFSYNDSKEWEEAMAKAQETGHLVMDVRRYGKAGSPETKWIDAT

LNX1_4, Q8TBB1 = conditions: plain residues with an end cap or a label only (N-terminal biotin on a linker: (peg)3)
Chain of LNX1_4, Q8TBB1 (Q8TBB1 631-726): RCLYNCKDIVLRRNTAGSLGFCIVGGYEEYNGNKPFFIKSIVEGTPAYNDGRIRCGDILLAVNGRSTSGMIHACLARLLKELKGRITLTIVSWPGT

PARD6B, Q9BYG5 = target: T10, PARD6B, Q9BYG5; conditions: plain residues with an end cap or a label only (N-terminal biotin on a linker: (peg)3)
PDZD9, Q8IXQ8 = conditions: plain residues with an end cap or a label only (N-terminal biotin on a linker: (peg)3)
Chain of PDZD9, Q8IXQ8 (Q8IXQ8 23-120): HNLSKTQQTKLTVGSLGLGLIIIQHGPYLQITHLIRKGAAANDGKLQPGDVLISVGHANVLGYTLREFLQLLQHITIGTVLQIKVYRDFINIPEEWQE

RIMS2, Q9UQ26 = conditions: plain residues with an end cap or a label only (N-terminal biotin on a linker: (peg)3)
Chain of RIMS2, Q9UQ26 (Q9UQ26 637-758): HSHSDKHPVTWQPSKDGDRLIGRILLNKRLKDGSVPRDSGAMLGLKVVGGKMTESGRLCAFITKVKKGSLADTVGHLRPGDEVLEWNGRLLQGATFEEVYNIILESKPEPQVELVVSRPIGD

SNTB2, Q13425 = target: T11, SNTB2, Q13425; conditions: plain residues with an end cap or a label only (N-terminal biotin on a linker: (peg)3)
GIPC3, Q8TF64 = conditions: plain residues with an end cap or a label only (N-terminal biotin on a linker: (peg)3)
Chain of GIPC3, Q8TF64 (Q8TF64 107-202): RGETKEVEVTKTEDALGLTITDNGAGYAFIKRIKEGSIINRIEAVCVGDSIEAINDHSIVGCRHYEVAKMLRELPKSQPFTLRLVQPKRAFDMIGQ

GRIP2_2, Q9C0E4 = conditions: plain residues with an end cap or a label only (N-terminal biotin on a linker: (peg)3)
Chain of GRIP2_2, Q9C0E4 (Q9C0E4 137-245): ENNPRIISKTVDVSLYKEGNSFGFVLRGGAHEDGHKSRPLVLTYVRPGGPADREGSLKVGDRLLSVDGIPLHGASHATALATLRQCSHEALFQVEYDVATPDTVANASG

MAGI1_4, Q96QZ7 = conditions: plain residues with an end cap or a label only (N-terminal biotin on a linker: (peg)3)
Chain of MAGI1_4, Q96QZ7 (Q96QZ7 other isoform, or with tags, fused parts or gaps): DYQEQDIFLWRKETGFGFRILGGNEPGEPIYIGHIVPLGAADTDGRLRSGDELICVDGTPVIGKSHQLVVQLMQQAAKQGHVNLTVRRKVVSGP

Q8IUC4 = conditions: plain residues with an end cap or a label only (N-terminal biotin on a linker: (peg)3)
[1] = modified: phospho on T at position -2 from the C-terminal residue
[2] = plain residues with an end cap or a label only (N-terminal biotin on a linker: (peg)3)

Binder | pKd (DLG2_1, Q15700; [2]) | pKd (DVL2, O14641) | pKd (LNX1_4, Q8TBB1) | pKd (MAGI3_3, Q5TCQ9; [2]) | pKd (MAGI3_4, Q5TCQ9; [2]) | pKd (MAGI3_6, Q5TCQ9; [2]) | pKd (MPDZ_11, O75970; [2]) | pKd (MPDZ_3, O75970; [2]) | pKd (NHERF1_1, O14745; [2]) | pKd (NHERF2_1, Q15599; [2]) | pKd (NHERF3_2, Q5T2W1; [2]) | pKd (NHERF4_3, Q86UT5; [2]) | pKd (PARD6B, Q9BYG5) | pKd (PDLIM3, Q53GG5; [2]) | pKd (PDZD2_4, O15018; [2]) | pKd (PDZD9, Q8IXQ8) | pKd (PREX1_1, Q8TCU6; [2]) | pKd (PREX2_2, Q70Z35; [2]) | pKd (RIMS2, Q9UQ26) | pKd (SHROOM3, Q8TF72; [2]) | also measured
SSRTRRETQL [HPV16-E6_-2P, P03126] |  |  |  |  |  |  |  |  |  |  |  |  |  |  |  |  |  |  |  |  | pKd (DLG2_1, Q15700; [1]): below the threshold; pKd (MAGI3_3, Q5TCQ9; [1]): below the threshold; pKd (MAGI3_4, Q5TCQ9; [1]): below the threshold; pKd (MAGI3_6, Q5TCQ9; [1]): below the threshold; pKd (MPDZ_11, O75970; [1]): below the threshold; pKd (MPDZ_3, O75970; [1]): below the threshold; pKd (NHERF1_1, O14745; [1]): below the threshold; pKd (NHERF2_1, Q15599; [1]): below the threshold; pKd (NHERF3_2, Q5T2W1; [1]): below the threshold; pKd (NHERF4_3, Q86UT5; [1]): below the threshold; pKd (PDLIM3, Q53GG5; [1]): below the threshold; pKd (PDZD2_4, O15018; [1]): below the threshold; pKd (PREX1_1, Q8TCU6; [1]): below the threshold; pKd (PREX2_2, Q70Z35; [1]): below the threshold; pKd (SHROOM3, Q8TF72; [1]): below the threshold; pKd (SYNPO2L, Q9H987; [1]): below the threshold
RYEDTTLVEDTVL [WNV-NS5, Q9Q6P4] | 4.28 | below the threshold | below the threshold | below the threshold | below the threshold | below the threshold | below the threshold | below the threshold | 5.14 | 4.19 | below the threshold | below the threshold | below the threshold | below the threshold | below the threshold | below the threshold | below the threshold | below the threshold | below the threshold | below the threshold | pKd (LMO7, Q8WWI1): below the threshold; pKd (SNTB2, Q13425): below the threshold; pKd (SYNPO2L, Q9H987; [2]): below the threshold
RRRRSQSRESQC [HBV-HBc, P03193] | 4.51 | below the threshold | below the threshold | below the threshold | below the threshold | below the threshold | below the threshold | below the threshold | below the threshold | below the threshold | below the threshold | below the threshold | below the threshold | 4.1 | below the threshold | below the threshold | below the threshold | below the threshold | below the threshold | below the threshold | pKd (GIPC3, Q8TF64): below the threshold; pKd (GRIP2_2, Q9C0E4): below the threshold; pKd (MAGI1_4, Q96QZ7): below the threshold; pKd (SNTB2, Q13425): 4.58; pKd (SYNPO2L, Q9H987; [2]): below the threshold
QQSMSSADSTQA [SARS-Cov2-N, P0DTC9] | below the threshold | below the threshold | below the threshold | 3.78 | below the threshold | below the threshold | below the threshold | below the threshold | below the threshold | below the threshold | below the threshold | below the threshold | below the threshold | below the threshold | below the threshold | below the threshold | below the threshold | below the threshold | below the threshold | below the threshold | pKd (GIPC3, Q8TF64): below the threshold; pKd (GRIP2_2, Q9C0E4): below the threshold; pKd (LMO7, Q8WWI1): below the threshold; pKd (MAGI1_4, Q96QZ7): below the threshold; pKd (Q8IUC4): below the threshold; pKd (SNTB2, Q13425): below the threshold; pKd (SYNPO2L, Q9H987; [2]): below the threshold
